Data published in US20050053913A1 (Johns Hopkins, published 2005).

Biological target: T1, GAL4-DB (amino acids 1-147) expressed alone (yeast, UniProt P04386 1-147)
T1 construct: range 1-147; Negative control, not fused to another polypeptide; also called pPC97
Test: yeast reporter SPAL5:URA3, growth on Sc-ura and 5-FOA
Text: In this example, we employed the SPAL5:URA3 allele, which carries 5 GBSs.

T1 sequence (P04386 1-147 limits assumed): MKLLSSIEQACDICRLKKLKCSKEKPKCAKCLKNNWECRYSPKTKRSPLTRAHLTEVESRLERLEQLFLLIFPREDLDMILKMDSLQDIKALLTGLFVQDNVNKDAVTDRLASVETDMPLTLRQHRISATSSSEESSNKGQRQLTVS

B1: GAL4-AD (amino acids 768-881) expressed alone (other, yeast, UniProt P04386 768-881, looked up)
chain: ANFNQSGNIADSSLSFTFTNSSNGPNLITTQTNSQALSQPIASSNVHDNFMNNEITASKIDDGNNSKPLSPGWTDQTAYNAFGITTGMFNTTTMDDVYNYLFDDEDTPPNPKKE
notes: range 768-881; Negative control, not fused to another polypeptide; also called AD empty (pPC86); pPC86
B1: no binding.
